The text below walks through data of PMC3545062 (Structure (London, England : 1993), 2012).

As usually defined, the Kd is the concentration at which binding is half-saturated. In general, stoichiometry N refers to the number of molecules, sites or subunits per partner or assembly.

Where a chain is given by its changes, count along the chain named. Names may count otherwise.

For data set [1], the target named is Cdc13 OB2 domain L401A (S. cerevisiae) (UniProt P32797). In words: cross-linking.
In data set [2] the target is Cdc13 OB2 domain P371S (cdc13-1 mutation) (S. cerevisiae) (UniProt P32797). In words: cross-linking.
In data set [3] the target is Cdc13 OB2 domain Y388A (S. cerevisiae) (UniProt P32797). As to the kind of experiment: cross-linking.
Data set [4] addresses T1, Cdc13 construct consisting of residues 344-924 (domains OB2-DBD-OB4) (S. cerevisiae, UniProt P32797 344-924).
T1 sequence (looked up): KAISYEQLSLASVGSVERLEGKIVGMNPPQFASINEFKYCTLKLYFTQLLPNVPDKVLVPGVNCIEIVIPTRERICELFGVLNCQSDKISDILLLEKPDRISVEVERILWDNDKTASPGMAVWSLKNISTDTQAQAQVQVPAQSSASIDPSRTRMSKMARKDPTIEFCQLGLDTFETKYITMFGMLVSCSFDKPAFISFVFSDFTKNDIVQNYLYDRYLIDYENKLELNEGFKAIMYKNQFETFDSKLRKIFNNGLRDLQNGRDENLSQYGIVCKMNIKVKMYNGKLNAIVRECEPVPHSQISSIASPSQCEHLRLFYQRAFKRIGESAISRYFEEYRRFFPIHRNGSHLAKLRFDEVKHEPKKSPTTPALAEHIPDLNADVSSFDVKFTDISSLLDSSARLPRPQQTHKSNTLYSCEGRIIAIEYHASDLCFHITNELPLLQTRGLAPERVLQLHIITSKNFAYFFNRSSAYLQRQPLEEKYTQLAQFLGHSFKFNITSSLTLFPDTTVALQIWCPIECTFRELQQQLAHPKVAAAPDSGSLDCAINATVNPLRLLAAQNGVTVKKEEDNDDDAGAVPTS
As to the kind of experiment: ITC.

Data set [5] concerns the molecule itself. As to the kind of experiment: cross-linking.

“Cdc13 OB2 domain L401A (from UniProt P32797 344-495) (domain or fragment)”: in data set [1], the percent reduction of OB2 dimerization (cross-linking) stood at 50%.

“Cdc13 OB2 domain P371S (cdc13-1 mutation) (from UniProt P32797 344-495) (domain or fragment)”: the percent reduction of OB2 dimerization (cross-linking) in data set [2] came out at 78%.

For the molecule “Cdc13 OB2 domain Y388A (from UniProt P32797 344-495) (domain or fragment)”, in data set [3], the percent reduction of OB2 dimerization (cross-linking) stood at 70%.

B1: C-terminal domain of Stn1, residues 311-494 (domain or fragment, S. cerevisiae, UniProt P38960 311-494, looked up)
chain: NRTSAKSNLMLILLGLQMKEISNSDLYKLKEVRSVVTSLASFLFQQQNVGVMKSFDSLEKEAFRDLVNRLVSQGLIGLKDKTSETFDLLPLKNLFEYAEKRISVLMKLQCYTGTVQLSHVQEKLHLPYITTNGIVDVFKECLKRTKKQYPEVLKNWWIDLDPKNGMEDQNSGILLHLEYAAAYS
In data set [4], B1 gave an equilibrium dissociation constant (Kd) of 6.4 µM.

B2: S. cerevisiae Cdc13 OB2 domain, wild type (domain or fragment, UniProt P32797 344-495, looked up)
chain: KAISYEQLSLASVGSVERLEGKIVGMNPPQFASINEFKYCTLKLYFTQLLPNVPDKVLVPGVNCIEIVIPTRERICELFGVLNCQSDKISDILLLEKPDRISVEVERILWDNDKTASPGMAVWSLKNISTDTQAQAQVQVPAQSSASIDPSR
On to B2, for which the “stoichiometry N” value in data set [5] stood at 2.

B3: Cdc13 OB2 domain C383S (domain or fragment, S. cerevisiae, UniProt P32797 344-495, looked up)
chain: B2 chain with C40S
Regarding B3, the binding result in data set [5] is on record as “binds”.
